Experimental data taken from IntAct's records for PubMed 31515488.

B1: NAD kinase (Homo sapiens), O95544 (parent)
chain: MEMEQEKMTMNKELSPDAAAYCCSACHGDETWSYNHPIRGRAKSRSLSASPALGSTKEFRRTRSLHGPCPVTTFGPKACVLQNPQTIMHIQDPASQRLTWNKSPKSVLVIKKMRDASLLQPFKELCTHLMEENMIVYVEKKVLEDPAIASDESFGAVKKKFCTFREDYDDISNQIDFIICLGGDGTLLYASSLFQGSVPPVMAFHLGSLGFLTPFSFENFQSQVTQVIEGNAAVVLRSRLKVRVVKELRGKKTAVHNGLGENGSQAAGLDMDVGKQAMQYQVLNEVVIDRGPSSYLSNVDVYLDGHLITTVQGDGVIVSTPTGSTAYAAAAGASMIHPNVPAIMITPICPHSLSFRPIVVPAGVELKIMLSPEARNTAWVSFDGRKRQEIRHGDSISITTSCYPLPSICVRDPVSDWFESLAQCLHWNVRKKQAHFEEEEEEEEEG
B2: Notch homolog 2 N-terminal-like protein A (Homo sapiens), Q7Z3S9 (parent)
chain: MCVTYHNGTGYCKCPEGFLGEYCQHRDPCEKNRCQNGGTCVAQAMLGKATCRCASGFTGEDCQYSTSHPCFVSRPCLNGGTCHMLSRDTYECTCQVGFTGKECQWTDACLSHPCANGSTCTTVANQFSCKCLTGFTGQKCETDVNECDIPGHCQHGGTCLNLPGSYQCQCLQGFTGQYCDSLYVPCAPSPCVNGGTCRQTGDFTFECNCLPETVRRGTELWERDREVWNGKEHDEN
partner: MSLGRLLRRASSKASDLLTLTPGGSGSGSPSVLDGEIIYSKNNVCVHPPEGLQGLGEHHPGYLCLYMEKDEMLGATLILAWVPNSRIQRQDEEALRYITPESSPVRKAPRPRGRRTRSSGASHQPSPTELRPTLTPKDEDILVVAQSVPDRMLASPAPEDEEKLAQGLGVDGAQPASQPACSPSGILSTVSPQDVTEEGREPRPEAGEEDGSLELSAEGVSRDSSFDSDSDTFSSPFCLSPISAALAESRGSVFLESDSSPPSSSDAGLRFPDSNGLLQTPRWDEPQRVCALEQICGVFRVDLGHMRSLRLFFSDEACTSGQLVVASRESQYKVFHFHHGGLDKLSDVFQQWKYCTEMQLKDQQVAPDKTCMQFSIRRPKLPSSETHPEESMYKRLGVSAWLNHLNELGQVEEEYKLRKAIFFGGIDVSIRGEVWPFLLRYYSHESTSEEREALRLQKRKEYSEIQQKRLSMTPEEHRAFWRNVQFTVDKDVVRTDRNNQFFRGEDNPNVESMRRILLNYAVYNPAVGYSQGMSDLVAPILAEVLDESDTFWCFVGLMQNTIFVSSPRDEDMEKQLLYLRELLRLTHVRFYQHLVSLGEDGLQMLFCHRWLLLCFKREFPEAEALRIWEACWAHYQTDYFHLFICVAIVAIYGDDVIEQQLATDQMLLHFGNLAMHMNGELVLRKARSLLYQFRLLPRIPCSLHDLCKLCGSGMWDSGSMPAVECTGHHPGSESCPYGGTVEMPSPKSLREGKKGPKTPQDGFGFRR
B3: mRNA-decapping enzyme 1A (Homo sapiens), Q9NPI6 (parent)
chain: MEALSRAGQEMSLAALKQHDPYITSIADLTGQVALYTFCPKANQWEKTDIEGTLFVYRRSASPYHGFTIVNRLNMHNLVEPVNKDLEFQLHEPFLLYRNASLSIYSIWFYDKNDCHRIAKLMADVVEEETRRSQQAARDKQSPSQANGCSDHRPIDILEMLSRAKDEYERNQMGDSNISSPGLQPSTQLSNLGSTETLEEMPSGSQDKSAPSGHKHLTVEELFGTSLPKEQPAVVGLDSEEMERLPGDASQKEPNSFLPFPFEQLGGAPQSETLGVPSAAHHSVQPEITTPVLITPASITQSNEKHAPTYTIPLSPVLSPTLPAEAPTAQVPPSLPRNSTMMQAVKTTPRQRSPLLNQPVPELSHASLIANQSPFRAPLNVTNTAGTSLPSVDLLQKLRLTPQHDQIQTQPLGKGAMVASFSPAAGQLATPESFIEPPSKTAAARVAASASLSNMVLAPLQSMQQNQDPEVFVQPKVLSSAIPVAGAPLVTATTTAVSSVLLAPSVFQQTVTRSSDLERKASSPSPLTIGTPESQRKPSIILSKSQLQDTLIHLIKNDSSFLSTLHEVYLQVLTKNKDNHNL
partner: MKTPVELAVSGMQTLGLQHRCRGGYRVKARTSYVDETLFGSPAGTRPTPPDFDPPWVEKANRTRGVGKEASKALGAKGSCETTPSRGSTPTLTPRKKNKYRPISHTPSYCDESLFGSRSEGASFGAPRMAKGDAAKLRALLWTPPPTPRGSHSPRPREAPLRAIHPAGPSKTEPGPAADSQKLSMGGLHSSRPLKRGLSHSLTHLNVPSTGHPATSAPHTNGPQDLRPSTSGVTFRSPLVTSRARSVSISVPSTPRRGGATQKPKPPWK
B4: Low-density lipoprotein receptor class A domain-containing protein 1 (Homo sapiens), Q5T700 (parent)
chain: MNKVFPQGENGYTAAESKAHPGGEAGGGHLCCSRRGACLSASLLLLLATVAALIALVTILGLPSCTPGAQACITLTNRTGFLCHDQRSCIPASGVCDGVRTCTHGEDEDESLCRDVPQSLPHFLVAHCGDPASWIYSDQKCDGTNNCGDCSDELSPVTVCPPCGPGWWRCPSTFFKYCDCIPRHLCRDHVQHCSDWSDEYACPGP
partner: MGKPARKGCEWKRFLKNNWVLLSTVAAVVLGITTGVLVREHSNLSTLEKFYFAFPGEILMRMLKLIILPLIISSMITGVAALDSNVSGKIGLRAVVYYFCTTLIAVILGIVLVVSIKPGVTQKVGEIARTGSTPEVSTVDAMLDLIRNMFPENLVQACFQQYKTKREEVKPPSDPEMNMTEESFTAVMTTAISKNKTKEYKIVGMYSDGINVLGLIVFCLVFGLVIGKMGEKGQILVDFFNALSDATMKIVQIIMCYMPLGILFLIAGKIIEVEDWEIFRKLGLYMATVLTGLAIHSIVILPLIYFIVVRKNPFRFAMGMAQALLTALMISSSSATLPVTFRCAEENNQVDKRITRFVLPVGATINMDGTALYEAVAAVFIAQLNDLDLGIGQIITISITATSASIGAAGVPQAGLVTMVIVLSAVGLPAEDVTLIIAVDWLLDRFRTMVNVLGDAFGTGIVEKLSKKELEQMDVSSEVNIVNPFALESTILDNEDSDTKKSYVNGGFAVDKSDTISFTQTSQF

Variants of: B1
Conditions: with sdcb1_human SDCBP

| effect of a mutation on the interaction | Variant |
| --- | --- |
| with no effect | MEMEQEKMTMNKELSPDAAAYCCSACHGDETWSYNHPIRGRAKSRSLSASPALGSTKEFRRTRSLHGPCPVTTFGPKACVLQNPQTIMHIQDPASQRLTWNKSPKSVLVIKKMRDASLLQPFKELCTHLMEENMIVYVEKKVLEDPAIASDESFGAVKKKFCTFREDYDDISNQIDFIICLGGDGTLLYASSLFQGSVPPVMAFHLGSLGFLTPFSFENFQSQVTQVIEGNAAVVLRSRLKVRVVKELWGKKTAVHNGLGENGSQAAGLDMDVGKQAMQYQVLNEVVIDRGPSSYLSNVDVYLDGHLITTVQGDGVIVSTPTGSTAYAAAAGASMIHPNVPAIMITPICPHSLSFRPIVVPAGVELKIMLSPEARNTAWVSFDGRKRQEIRHGDSISITTSCYPLPSICVRDPVSDWFESLAQCLHWNVRKKQAHFEEEEEEEEEG [R249W] |

Variants of: B2
Conditions: with tbc16_human TBC1D16, Q8TBP0

| effect of a mutation on the interaction | Variant |
| --- | --- |
| with no effect | A115T |
| with no effect | R74Q |

Variants of: B3
Conditions: with rita1_human RITA1, Q96K30

| effect of a mutation on the interaction | Variant |
| --- | --- |
| with no effect | MEALSRAGQEMSLAALKQHDPYITSIADLTGQVALYTFCPKANQWEKTDIEGTLFVYRRSASPYHGFTIVNRLNMHNLVEPVNKDLEFQLHEPFLLYRNASLSIYSIWFYDKNDCHRIAKLMADVVEEETRRSQQAARDKQSPSQANGCSDHRPIDILEMLSRAKDEYERNQMGDSNISSPGLQPSTQLSNLGSTETLEEMPSGSQDKSAPSGHKHLTVEELFGTSLPKEQPAVVGLDSEEMERLPGDASQKEPNSFLPFPFEQLGGAPQSETLGVPSAAHHSVQPEITTPVLITPASITQSNEKHAPTYTIPLSPVLSPTLPAEAPTAQVPPSLPRNSTMMQAVKTTPRQRSPLLNQPVPELSHASLIANQSPFRAPLNVTNTAGTSLPSVDLLQKLRLTPQHDQIQTQPLGKGAMVASFSPAAGQLATPESFIEPPSKTAAARVAASASLSNMVLAPLQSMQQNQDPEVFVHPKVLSSAIPVAGAPLVTATTTAVSSVLLAPSVFQQTVTRSSDLERKASSPSPLTIGTPESQRKPSIILSKSQLQDTLIHLIKNDSSFLSTLHEVYLQVLTKNKDNHNL [Q474H] |
| with no effect | MEALSRAGQEMSLAALKQHDPYITSIADLTGQVALYTFCPKANQWEKTDIEGTLFVYRRSASPYHGFTIVNRLNMHNLVEPVNKDLEFQLHEPFLLYRNASLSIYSIWFYDKNDCHRIAKLMADVVEEETRRSQQAARDKQSPSQANGCSDHRPIDILEMLSRAKDEYERNQMGDSNISSPGLQPSTQLSNLGSTETLEEMPSGSQDKSAPSGHKHLTVEELFGTSLPKEQPAVVGLDSEEMERLPGDASQKEPNSFLPFPFEQLGGAPQSETLGVPSAAHHSVQPEITTPVLITPGSITQSNEKHAPTYTIPLSPVLSPTLPAEAPTAQVPPSLPRNSTMMQAVKTTPRQRSPLLNQPVPELSHASLIANQSPFRAPLNVTNTAGTSLPSVDLLQKLRLTPQHDQIQTQPLGKGAMVASFSPAAGQLATPESFIEPPSKTAAARVAASASLSNMVLAPLQSMQQNQDPEVFVQPKVLSSAIPVAGAPLVTATTTAVSSVLLAPSVFQQTVTRSSDLERKASSPSPLTIGTPESQRKPSIILSKSQLQDTLIHLIKNDSSFLSTLHEVYLQVLTKNKDNHNL [A297G] |
| with no effect | MEALSRAGQEMSLAALKQHDPYITSIADLTGQVALYTFCPKANQWEKTDIEGTLFVYRRSASPYHGFTIVNRLNMHNLVEPVNKDLEFQLHEPFLLYRNASLSIYSIWFYDKNDCHRIAKLMADVVEEETRRSQQAARDKQSPSQANGCSDHRPIDILEMLSRAKDEYERNQMGDSNISSPGLQPSTQLSNLGSTETLEEMPSGSQDKSAPSGHKHLTVEELFGTSLPKEQPAVVGLDSEEMERLPGDASQKEPNSFLPFPFEQLGGAPQSETLGVPSAAHHSVQPEITTPVLITPASITQSNEKHAPTYTIPLSPVLSPTLPAEAPTAQVTPSLPRNSTMMQAVKTTPRQRSPLLNQPVPELSHASLIANQSPFRAPLNVTNTAGTSLPSVDLLQKLRLTPQHDQIQTQPLGKGAMVASFSPAAGQLATPESFIEPPSKTAAARVAASASLSNMVLAPLQSMQQNQDPEVFVQPKVLSSAIPVAGAPLVTATTTAVSSVLLAPSVFQQTVTRSSDLERKASSPSPLTIGTPESQRKPSIILSKSQLQDTLIHLIKNDSSFLSTLHEVYLQVLTKNKDNHNL [P332T] |

Variants of: B4
Conditions: with eaa3_human SLC1A1, P43005

| effect of a mutation on the interaction | Variant |
| --- | --- |
| with no effect | MNKVFPQGENGYTAAESKAHPGGEAGGGHLCCSRRGACLSASLLLLLATVAALIALVTILGLPSCTPGAQACITLTNRTGFLCHDQRSCIPASGVCDGVRTCTHSEDEDESLCRDVPQSLPHFLVAHCGDPASWIYSDQKCDGTNNCGDCSDELSPVTVCPPCGPGWWRCPSTFFKYCDCIPRHLCRDHVQHCSDWSDEYACPGP [G105S] |
| with no effect | MNKVFPQGENGYTAAESKAHPGGEAGGGHLCCSRRGACLSASLLLLLATVAALIALVTILGLPSCTPGAQACITLTNRTGFLCHDQRSCIPASGVCDGVRTCTHGEDKDESLCRDVPQSLPHFLVAHCGDPASWIYSDQKCDGTNNCGDCSDELSPVTVCPPCGPGWWRCPSTFFKYCDCIPRHLCRDHVQHCSDWSDEYACPGP [E108K] |
